# What was measured:
# [1] = substrate: C[C@H](CCC(=O)O)[C@H]1CC[C@H]2[C@@H]3C(=O)C[C@@H]4CC(=O)CC[C@]4(C)[C@H]3CC(=O)[C@]12C; assay: cells, lysate or membranes named; details: other: His tag length 3; DHCA 10 μM-10 mM; NADH 0.2 mM; purified; pH 8.0; 25.0 °C
# Source text: The His-tag allows for very simple purification of the HSDH protein since this sequence is bound with high specificity by specific chromatographic material (NTA (Ni-nitrilotriacetate)-modified support material, loaded with divalent nickel ions, for example “His Pur Ni-NTA” (Nimagen B. V., Nijmegen, The Netherlands)). To this end, the cell-free crude extract is applied to a dropping column comprising this material, which dropping column has previously been equilibrated with the disruption buffer (3 to 5 column volumes). Weakly binding protein was removed by washing with 3 to 5 column volumes of wash buffer (20 mM imidazole, 50 mM sodium phosphate, 300 mM NaCl, pH 8). […] The process was carried out at room temperature. The imidazole which was present was to be removed by buffer exchange.
# The activity of the 3α-HSDH and of the mutants was determined using a photometric assay, where the decrease in absorbance was measured at 340 nm over a period of 30 seconds.
# Following expression (25° C., 0.5 mM, IPTG, 20 hours), the protein was purified, and the expression and the purification were checked by means of an SDS gel. […] The NADH concentration was 0.2 mM. Purified protein was employed in the measurements.
# [2] = substrate: C[C@H](CCC(=O)O)[C@H]1CC[C@H]2[C@@H]3C(=O)C[C@@H]4CC(=O)CC[C@]4(C)[C@H]3CC(=O)[C@]12C; assay: purified protein, by the assay type; details: other: Table 14, substrate DHCA, tag N, apparent values, pH 8.0
# [3] = substrate: NC(=O)C1=CN([C@@H]2O[C@H](COP(=O)(O)OP(=O)(O)OC[C@H]3O[C@@H](n4cnc5c(N)ncnc54)[C@H](O)[C@@H]3O)[C@@H](O)[C@H]2O)C=CC1; assay: purified protein, by the assay type; details: other: Table 15, substrate NADH; tag N; apparent values; pH 8.0
# [4] = system: 3α-HSDH; substrate DHCA; format: biochemical, Comamonas testosteroni; details: for DHCA substrate concentration at maximum specific activity / substrate excess inhibition: purified enzyme variant
Molecule,Km [2] [µM],Km [3] [µM],Vmax [3] [µmol/min/mg],kcat [3] [s⁻¹],kcat/Km [3] [M⁻¹ s⁻¹],DHCA substrate concentration at maximum specific activity [4] [mM],substrate excess inhibition ([4]; substrate DHCA),further results
"Comamonas testosteroni 3α-HSDH, wild type, C-terminal 3×His tag (Comamonas testosteroni) (protein) MSIIVISGCATGIGAATRKVLEAAGHQIVGIDIRDAEVIADLSTAEGRKQAIADVLAKCSKGMDGLVLCAGLGPQTKVLGNVVSVNYFGATELMDAFLPALKKGHQPAAVVISSVASAHLAFDKNPLALALEAGEEAKARAIVEHAGEQGGNLAYAGSKNALTVAVRKRAAAWGEAGVRLNTIAPGATETPLLQAGLQDPRYGESIAKFVPPMGRRAEPSEMASVIAFLMSPAASYVHGAQIVIDGGIDAVMRPTQFLEHHH",,,,,,,,Km [1]: 997.9 ± 483 µM
"Comamonas testosteroni 3α-HSDH mutant [T188A], N-terminal hexahistidine tag (Comamonas testosteroni; T188A) (protein) MSIIVISGCATGIGAATRKVLEAAGHQIVGIDIRDAEVIADLSTAEGRKQAIADVLAKCSKGMDGLVLCAGLGPQTKVLGNVVSVNYFGATELMDAFLPALKKGHQPAAVVISSVASAHLAFDKNPLALALEAGEEAKARAIVEHAGEQGGNLAYAGSKNALTVAVRKRAAAWGEAGVRLNTIAPGAAETPLLQAGLQDPRYGESIAKFVPPMGRRAEPSEMASVIAFLMSPAASYVHGAQIVIDGGIDAVMRPTQF",94.5 ± 11,111.5 ± 18.2,237,130,1.17e+06,,,
"Comamonas testosteroni 3α-HSDH dual mutant [L68A/T188A], N-terminal hexahistidine tag (Comamonas testosteroni; L68A/T188A) (protein) MSIIVISGCATGIGAATRKVLEAAGHQIVGIDIRDAEVIADLSTAEGRKQAIADVLAKCSKGMDGLVACAGLGPQTKVLGNVVSVNYFGATELMDAFLPALKKGHQPAAVVISSVASAHLAFDKNPLALALEAGEEAKARAIVEHAGEQGGNLAYAGSKNALTVAVRKRAAAWGEAGVRLNTIAPGAAETPLLQAGLQDPRYGESIAKFVPPMGRRAEPSEMASVIAFLMSPAASYVHGAQIVIDGGIDAVMRPTQF",164.4 ± 20.4,67.5 ± 4.7,229,111,1.65e+06,,,
"Comamonas testosteroni 3α-HSDH dual mutant [P185A/T188A], N-terminal hexahistidine tag (Comamonas testosteroni; P185A/T188A) (protein) MSIIVISGCATGIGAATRKVLEAAGHQIVGIDIRDAEVIADLSTAEGRKQAIADVLAKCSKGMDGLVLCAGLGPQTKVLGNVVSVNYFGATELMDAFLPALKKGHQPAAVVISSVASAHLAFDKNPLALALEAGEEAKARAIVEHAGEQGGNLAYAGSKNALTVAVRKRAAAWGEAGVRLNTIAAGAAETPLLQAGLQDPRYGESIAKFVPPMGRRAEPSEMASVIAFLMSPAASYVHGAQIVIDGGIDAVMRPTQF",66.9 ± 15,333.9 ± 137.5,85.9,17.6,52600,,,
"Comamonas testosteroni 3α-HSDH mutant [L68A], N-terminal hexahistidine tag (Comamonas testosteroni; L68A) (protein) MSIIVISGCATGIGAATRKVLEAAGHQIVGIDIRDAEVIADLSTAEGRKQAIADVLAKCSKGMDGLVACAGLGPQTKVLGNVVSVNYFGATELMDAFLPALKKGHQPAAVVISSVASAHLAFDKNPLALALEAGEEAKARAIVEHAGEQGGNLAYAGSKNALTVAVRKRAAAWGEAGVRLNTIAPGATETPLLQAGLQDPRYGESIAKFVPPMGRRAEPSEMASVIAFLMSPAASYVHGAQIVIDGGIDAVMRPTQF",,17.1 ± 3.7,138,110,6.46e+06,,,Km ([2]; NADH 0.2 mM): 75.4 ± 22.6 µM
"Comamonas testosteroni 3α-HSDH dual mutant [L68A/T188S], N-terminal hexahistidine tag (Comamonas testosteroni; L68A/T188S) (protein) MSIIVISGCATGIGAATRKVLEAAGHQIVGIDIRDAEVIADLSTAEGRKQAIADVLAKCSKGMDGLVACAGLGPQTKVLGNVVSVNYFGATELMDAFLPALKKGHQPAAVVISSVASAHLAFDKNPLALALEAGEEAKARAIVEHAGEQGGNLAYAGSKNALTVAVRKRAAAWGEAGVRLNTIAPGASETPLLQAGLQDPRYGESIAKFVPPMGRRAEPSEMASVIAFLMSPAASYVHGAQIVIDGGIDAVMRPTQF",169.6 ± 22.6,47.4 ± 2.6,188,91.8,1.94e+06,,,
"Comamonas testosteroni 3α-HSDH mutant [T188S], N-terminal hexahistidine tag (Comamonas testosteroni; T188S) (protein) MSIIVISGCATGIGAATRKVLEAAGHQIVGIDIRDAEVIADLSTAEGRKQAIADVLAKCSKGMDGLVLCAGLGPQTKVLGNVVSVNYFGATELMDAFLPALKKGHQPAAVVISSVASAHLAFDKNPLALALEAGEEAKARAIVEHAGEQGGNLAYAGSKNALTVAVRKRAAAWGEAGVRLNTIAPGASETPLLQAGLQDPRYGESIAKFVPPMGRRAEPSEMASVIAFLMSPAASYVHGAQIVIDGGIDAVMRPTQF",312.6 ± 112,87.6 ± 29.7,147,96.1,1.1e+06,,,
"Comamonas testosteroni 3α-HSDH mutant [P185A], N-terminal hexahistidine tag (Comamonas testosteroni; P185A) (protein) MSIIVISGCATGIGAATRKVLEAAGHQIVGIDIRDAEVIADLSTAEGRKQAIADVLAKCSKGMDGLVLCAGLGPQTKVLGNVVSVNYFGATELMDAFLPALKKGHQPAAVVISSVASAHLAFDKNPLALALEAGEEAKARAIVEHAGEQGGNLAYAGSKNALTVAVRKRAAAWGEAGVRLNTIAAGATETPLLQAGLQDPRYGESIAKFVPPMGRRAEPSEMASVIAFLMSPAASYVHGAQIVIDGGIDAVMRPTQF",71.0 ± 11,,,,,,,
"T188A N: 3α-HSDH mutant T188A with N-terminal hexahistidine tag (protein, UniProt P80702 2-257, looked up, variant T188A, N-terminal His6 tag, 3α-HSDH mutant T188A with N-terminal hexahistidine tag) 3-alpha-hydroxysteroid …: SIIVISGCATGIGAATRKVLEAAGHQIVGIDIRDAEVIADLSTAEGRKQAIADVLAKCSKGMDGLVLCAGLGPQTKVLGNVVSVNYFGATELMDAFLPALKKGHQPAAVVISSVASAHLAFDKNPLALALEAGEEAKARAIVEHAGEQGGNLAYAGSKNALTVAVRKRAAAWGEAGVRLNTIAPGAAETPLLQAGLQDPRYGESIAKFVPPMGRRAEPSEMASVIAFLMSPAASYVHGAQIVIDGGIDAVMRPTQF",,,,,,0.5,pronounced substrate excess inhibition,
"T188S N: 3α-HSDH mutant T188S with N-terminal hexahistidine tag (protein, UniProt P80702 2-257, looked up, variant T188S, N-terminal His6 tag, 3α-HSDH mutant T188S with N-terminal hexahistidine tag) 3-alpha-hydroxysteroid …: SIIVISGCATGIGAATRKVLEAAGHQIVGIDIRDAEVIADLSTAEGRKQAIADVLAKCSKGMDGLVLCAGLGPQTKVLGNVVSVNYFGATELMDAFLPALKKGHQPAAVVISSVASAHLAFDKNPLALALEAGEEAKARAIVEHAGEQGGNLAYAGSKNALTVAVRKRAAAWGEAGVRLNTIAPGASETPLLQAGLQDPRYGESIAKFVPPMGRRAEPSEMASVIAFLMSPAASYVHGAQIVIDGGIDAVMRPTQF",,,,,,0.5,substrate excess inhibition is observed,
"L68A/T188A N: 3α-HSDH dual mutant L68A/T188A with N-terminal hexahistidine tag (protein, UniProt P80702 2-257, looked up, variant L68A T188A, N-terminal His6 tag, 3α-HSDH dual mutant L68A/T188A with N-terminal hexahistidine tag) 3-alpha-hydroxysteroid …: SIIVISGCATGIGAATRKVLEAAGHQIVGIDIRDAEVIADLSTAEGRKQAIADVLAKCSKGMDGLVACAGLGPQTKVLGNVVSVNYFGATELMDAFLPALKKGHQPAAVVISSVASAHLAFDKNPLALALEAGEEAKARAIVEHAGEQGGNLAYAGSKNALTVAVRKRAAAWGEAGVRLNTIAPGAAETPLLQAGLQDPRYGESIAKFVPPMGRRAEPSEMASVIAFLMSPAASYVHGAQIVIDGGIDAVMRPTQF",,,,,,0.5,less pronounced substrate excess inhibition,
"L68A N: 3α-HSDH mutant L68A with N-terminal hexahistidine tag (protein, UniProt P80702 2-257, looked up, variant L68A, N-terminal His6 tag, 3α-HSDH mutant L68A with N-terminal hexahistidine tag) 3-alpha-hydroxysteroid …: SIIVISGCATGIGAATRKVLEAAGHQIVGIDIRDAEVIADLSTAEGRKQAIADVLAKCSKGMDGLVACAGLGPQTKVLGNVVSVNYFGATELMDAFLPALKKGHQPAAVVISSVASAHLAFDKNPLALALEAGEEAKARAIVEHAGEQGGNLAYAGSKNALTVAVRKRAAAWGEAGVRLNTIAPGATETPLLQAGLQDPRYGESIAKFVPPMGRRAEPSEMASVIAFLMSPAASYVHGAQIVIDGGIDAVMRPTQF",,,,,,0.1,pronounced substrate excess inhibition,
"P185A/T188A N: 3α-HSDH dual mutant P185A/T188A with N-terminal hexahistidine tag (protein, UniProt P80702 2-257, looked up, variant P185A T188A, N-terminal His6 tag, 3α-HSDH dual mutant P185A/T188A with N-terminal hexahistidine tag) 3-alpha-hydroxysteroid …: SIIVISGCATGIGAATRKVLEAAGHQIVGIDIRDAEVIADLSTAEGRKQAIADVLAKCSKGMDGLVLCAGLGPQTKVLGNVVSVNYFGATELMDAFLPALKKGHQPAAVVISSVASAHLAFDKNPLALALEAGEEAKARAIVEHAGEQGGNLAYAGSKNALTVAVRKRAAAWGEAGVRLNTIAAGAAETPLLQAGLQDPRYGESIAKFVPPMGRRAEPSEMASVIAFLMSPAASYVHGAQIVIDGGIDAVMRPTQF",,,,,,0.5,substrate excess inhibition was observed,activities compared with the corresponding single mutants ([4]; substrate DHCA): markedly lower
"L68A/T188S N: 3α-HSDH dual mutant L68A/T188S with N-terminal hexahistidine tag (protein, UniProt P80702 2-257, looked up, variant L68A T188S, N-terminal His6 tag, 3α-HSDH dual mutant L68A/T188S with N-terminal hexahistidine tag) 3-alpha-hydroxysteroid …: SIIVISGCATGIGAATRKVLEAAGHQIVGIDIRDAEVIADLSTAEGRKQAIADVLAKCSKGMDGLVACAGLGPQTKVLGNVVSVNYFGATELMDAFLPALKKGHQPAAVVISSVASAHLAFDKNPLALALEAGEEAKARAIVEHAGEQGGNLAYAGSKNALTVAVRKRAAAWGEAGVRLNTIAPGASETPLLQAGLQDPRYGESIAKFVPPMGRRAEPSEMASVIAFLMSPAASYVHGAQIVIDGGIDAVMRPTQF",,,,,,0.5,pronounced substrate excess inhibition,
